{"source": "the Human Domainome abundance scans (Beltran et al. 2025)", "parents": {"B1": {"name": "Mineralocorticoid receptor, residues 600 to 675; numbered along this chain, P08235 (parent)", "chain": "SKICLVCGDEASGCHYGVVTCGSCKVFFKRAVEGQHNYLCAGRNDCIIDKIRRKNCPACRLQKCLQAGMNLGARKS"}}, "note": "± gives the uncertainty stated by the source."}
{"variants_of": "B1", "experiment": "abundance fitness (aPCA) (normalised: wild type 0, dead -1); higher = more abundant; growth selection in yeast, the domain comes from the species named", "conditions": "Homo sapiens"}
{"variant": "SKICLVCGDEASGCHYGVVTCGSCKVFFKRAVEGQENYLCAGRNDCIIDKIRRKNCPACRLQKCLQAGMNLGARKS", "abundance fitness": "-0.004 ± 0.038"}
{"variant": "SKICLVCGDEASGCHYGVVTCGSCKVFFKRAVEGQQNYLCAGRNDCIIDKIRRKNCPACRLQKCLQAGMNLGARKS", "abundance fitness": "-0.004 ± 0.042"}
{"variant": "SKICLVCGDEASGCHYGVVTCGSCKVFFKRAVEGQKNYLCAGRNDCIIDKIRRKNCPACRLQKCLQAGMNLGARKS", "abundance fitness": "-0.138 ± 0.054"}
{"variant": "SKICLVCGDEASGCHYGVVTCGSCKVFFKRAVEGQINYLCAGRNDCIIDKIRRKNCPACRLQKCLQAGMNLGARKS", "abundance fitness": "-0.022 ± 0.043"}
{"variant": "SKICLVCGDEASGCHYGVVTCGSCKVFFKRAVEGQWNYLCAGRNDCIIDKIRRKNCPACRLQKCLQAGMNLGARKS", "abundance fitness": "-0.157 ± 0.039"}
{"variant": "SKICLVCGDEASGCHYGVVTCGSCKVFFKRAVEGQTNYLCAGRNDCIIDKIRRKNCPACRLQKCLQAGMNLGARKS", "abundance fitness": "-0.022 ± 0.037"}
{"variant": "SKICLVCGDEASGCHYGVVTCGSCKVFFKRAVEGQSNYLCAGRNDCIIDKIRRKNCPACRLQKCLQAGMNLGARKS", "abundance fitness": "0.01 ± 0.03"}
{"variant": "SKICLVCGDEASGCHYGVVTCGSCKVFFKRAVEGQNNYLCAGRNDCIIDKIRRKNCPACRLQKCLQAGMNLGARKS", "abundance fitness": "0.001 ± 0.042"}
{"variant": "SKICLVCGDEASGCHYGVVTCGSCKVFFKRAVEGQMNYLCAGRNDCIIDKIRRKNCPACRLQKCLQAGMNLGARKS", "abundance fitness": "-0.046 ± 0.039"}
{"variant": "SKICLVCGDEASGCHYGVVTCGSCKVFFKRAVEGQANYLCAGRNDCIIDKIRRKNCPACRLQKCLQAGMNLGARKS", "abundance fitness": "0.025 ± 0.03"}
{"variant": "SKICLVCGDEASGCHYGVVTCGSCKVFFKRAVEGQGNYLCAGRNDCIIDKIRRKNCPACRLQKCLQAGMNLGARKS", "abundance fitness": "-0.012 ± 0.027"}
{"variant": "SKICLVCGDEASGCHYGVVTCGSCKVFFKRAVEGQDNYLCAGRNDCIIDKIRRKNCPACRLQKCLQAGMNLGARKS", "abundance fitness": "0.005 ± 0.041"}
{"variant": "SKICLVCGDEASGCHYGVVTCGSCKVFFKRAVEGQLNYLCAGRNDCIIDKIRRKNCPACRLQKCLQAGMNLGARKS", "abundance fitness": "-0.087 ± 0.028"}
{"variant": "SKICLVCGDEASGCHYGVVTCGSCKVFFKRAVEGQCNYLCAGRNDCIIDKIRRKNCPACRLQKCLQAGMNLGARKS", "abundance fitness": "-0.042 ± 0.042"}
{"variant": "SKICLVCGDEASGCHYGVVTCGSCKVFFKRAVEGQFNYLCAGRNDCIIDKIRRKNCPACRLQKCLQAGMNLGARKS", "abundance fitness": "-0.023 ± 0.045"}
{"variant": "SKICLVCGDEASGCHYGVVTCGSCKVFFKRAVEGQPNYLCAGRNDCIIDKIRRKNCPACRLQKCLQAGMNLGARKS", "abundance fitness": "-0.021 ± 0.036"}
{"variant": "SKICLVCGDEASGCHYGVVTCGSCKVFFKRAVEGQYNYLCAGRNDCIIDKIRRKNCPACRLQKCLQAGMNLGARKS", "abundance fitness": "-0.043 ± 0.039"}
{"variant": "SKICLVCGDEASGCHYGVVTCGSCKVFFKRAVEGRHNYLCAGRNDCIIDKIRRKNCPACRLQKCLQAGMNLGARKS", "abundance fitness": "-0.002 ± 0.038"}
{"variant": "SKICLVCGDEASGCHYGVVTCGSCKVFFKRAVEGWHNYLCAGRNDCIIDKIRRKNCPACRLQKCLQAGMNLGARKS", "abundance fitness": "-0.205 ± 0.057"}
{"variant": "SKICLVCGDEASGCHYGVVTCGSCKVFFKRAVEGAHNYLCAGRNDCIIDKIRRKNCPACRLQKCLQAGMNLGARKS", "abundance fitness": "-0.058 ± 0.044"}
{"variant": "SKICLVCGDEASGCHYGVVTCGSCKVFFKRAVEGHHNYLCAGRNDCIIDKIRRKNCPACRLQKCLQAGMNLGARKS", "abundance fitness": "-0.022 ± 0.051"}
{"variant": "SKICLVCGDEASGCHYGVVTCGSCKVFFKRAVEGIHNYLCAGRNDCIIDKIRRKNCPACRLQKCLQAGMNLGARKS", "abundance fitness": "-0.015 ± 0.056"}
{"variant": "SKICLVCGDEASGCHYGVVTCGSCKVFFKRAVEGPHNYLCAGRNDCIIDKIRRKNCPACRLQKCLQAGMNLGARKS", "abundance fitness": "-0.013 ± 0.047"}
{"variant": "SKICLVCGDEASGCHYGVVTCGSCKVFFKRAVEGKHNYLCAGRNDCIIDKIRRKNCPACRLQKCLQAGMNLGARKS", "abundance fitness": "0.011 ± 0.06"}
{"variant": "SKICLVCGDEASGCHYGVVTCGSCKVFFKRAVEGNHNYLCAGRNDCIIDKIRRKNCPACRLQKCLQAGMNLGARKS", "abundance fitness": "-0.058 ± 0.049"}
{"variant": "SKICLVCGDEASGCHYGVVTCGSCKVFFKRAVEGTHNYLCAGRNDCIIDKIRRKNCPACRLQKCLQAGMNLGARKS", "abundance fitness": "-0.077 ± 0.043"}
{"variant": "SKICLVCGDEASGCHYGVVTCGSCKVFFKRAVEGEHNYLCAGRNDCIIDKIRRKNCPACRLQKCLQAGMNLGARKS", "abundance fitness": "0.069 ± 0.058"}
{"variant": "SKICLVCGDEASGCHYGVVTCGSCKVFFKRAVEGFHNYLCAGRNDCIIDKIRRKNCPACRLQKCLQAGMNLGARKS", "abundance fitness": "-0.129 ± 0.055"}
{"variant": "SKICLVCGDEASGCHYGVVTCGSCKVFFKRAVEGVHNYLCAGRNDCIIDKIRRKNCPACRLQKCLQAGMNLGARKS", "abundance fitness": "-0.079 ± 0.035"}
{"variant": "SKICLVCGDEASGCHYGVVTCGSCKVFFKRAVEGSHNYLCAGRNDCIIDKIRRKNCPACRLQKCLQAGMNLGARKS", "abundance fitness": "-0.028 ± 0.038"}
{"variant": "SKICLVCGDEASGCHYGVVTCGSCKVFFKRAVEGLHNYLCAGRNDCIIDKIRRKNCPACRLQKCLQAGMNLGARKS", "abundance fitness": "-0.094 ± 0.038"}
{"variant": "SKICLVCGDEASGCHYGVVTCGSCKVFFKRAVEGCHNYLCAGRNDCIIDKIRRKNCPACRLQKCLQAGMNLGARKS", "abundance fitness": "-0.073 ± 0.05"}
{"variant": "SKICLVCGDEASGCHYGVVTCGSCKVFFKRAVEGYHNYLCAGRNDCIIDKIRRKNCPACRLQKCLQAGMNLGARKS", "abundance fitness": "-0.112 ± 0.056"}
{"variant": "SKICLVCGDEASGCHYGVVTCGSCKVFFKRAVEGDHNYLCAGRNDCIIDKIRRKNCPACRLQKCLQAGMNLGARKS", "abundance fitness": "0.056 ± 0.057"}
{"variant": "SKICLVCGDEASGCHYGVVTCGSCKVFFKRAVEGGHNYLCAGRNDCIIDKIRRKNCPACRLQKCLQAGMNLGARKS", "abundance fitness": "-0.023 ± 0.042"}
{"variant": "SKICLVCGDEASGCHYGVVTCGSCKVFFKRAVEGMHNYLCAGRNDCIIDKIRRKNCPACRLQKCLQAGMNLGARKS", "abundance fitness": "-0.121 ± 0.056"}
